According to PMC5147862 (PLoS ONE, 2016):

B1: RAS association (RA) domain of RASSF5, MBP fusion (domain or fragment, human, UniProt Q8WWW0 200-358, looked up)
chain: EETQRPPTLQEIKQKIDSYNTREKNCLGMKLSEDGTYTGFIKVHLKLRRPVTVPAGIRPQSIYDAIKEVNLAATTDKRTSFYLPLDAIKQLHISSTTTVSEVIQGLLKKFMVVDNPQKFALFKRIHKDGQVLFQKLSIADRPLYLRLLAGPDTEVLSFV
notes: human RASSF5, RA domain, aa 200-358; also called RASSF5-RA
B2: RAS association (RA) domain of PLCε, MBP fusion (domain or fragment, human, UniProt Q9P212 2130-2240, looked up)
chain: LSSEEESFFVQVHDVSPEQPRTVIKAPRVSTAQDVIQQTLCKAKYSYSILSNPNPSDYVLLEEVVKDTTNKKTTTPKSSQRVLLDQECVFQAQSKWKGAGKFILKLKEQVQ
notes: human PLCε, RA domain (RA2), aa 2130-2240; also called PLCε-RA2
B3: RRAS1, mGppNHp-bound (natural protein, human, UniProt P10301 1-218, looked up)
chain: MSSGAASGTGRGRPRGGGPGPGDPPPSETHKLVVVGGGGVGKSALTIQFIQSYFVSDYDPTIEDSYTKICSVDGIPARLDILDTAGQEEFGAMREQYMRAGHGFLLVFAINDRQSFNEVGKLFTQILRVKDRDDFPVVLVGNKADLESQRQVPRSEASAFGASHHVAYFEASAKLRLNVDEAFEQLVRAVRKYQEQELPPSPPSAPRKKGGGCPCVLL
notes: human RRAS1 (R-Ras); Loaded with mGppNHp; That the RAS proteins are the ones made with pGEX is surmised
B4: RRAS2 (or TC21), mGppNHp-bound (natural protein, human, UniProt P62070 1-204, looked up)
chain: MAAAGWRDGSGQEKYRLVVVGGGGVGKSALTIQFIQSYFVTDYDPTIEDSYTKQCVIDDRAARLDILDTAGQEEFGAMREQYMRTGEGFLLVFSVTDRGSFEEIYKFQRQILRVKDRDEFPMILIGNKADLDHQRQVTQEEGQQLARQLKVTYMEASAKIRMNVDQAFHELVRVIRKFQEQECPPSPEPTRKEKDKKGCHCVIF
notes: human RRAS2 (TC21); Loaded with mGppNHp; That the RAS proteins are the ones made with pGEX is surmised; also called RRAS2-mGppNHp

Legend:
Assay in all cases: fluorescence polarisation; MBP-tagged effector domain (0.05-100 μM) titrated to 1 μM RAS-mGppNHp; 50 mM Tris/HCl pH 7.5, 100 mM NaCl, 5 mM MgCl2, 3 mM dithiothreitol, 25°C; quadratic ligand binding equation
Conditions in all cases: both partners purified
[1] = molecular target: T1, HRAS, mGppNHp-bound (human, UniProt P01112 1-189)
T1 construct: human HRAS; Loaded with the fluorescent non-hydrolysable GTP analog mant-GppNHp (mGppNHp); That the RAS proteins are the ones made with pGEX is surmised

[2] = molecular target: T2, NRAS, mGppNHp-bound (human, UniProt P01111 1-189)
T2 construct: human NRAS; Loaded with mGppNHp; That the RAS proteins are the ones made with pGEX is surmised

[3] = molecular target: B3
[4] = molecular target: B4
[5] = molecular target: T3, RAS binding (RB) domain of PI3Kα, MBP fusion (human, UniProt P42336 169-301)
T3 construct: human PI3Kα, RB domain, aa 169-301; also called PI3Kα-RB
T3 sequence (P42336 169-301): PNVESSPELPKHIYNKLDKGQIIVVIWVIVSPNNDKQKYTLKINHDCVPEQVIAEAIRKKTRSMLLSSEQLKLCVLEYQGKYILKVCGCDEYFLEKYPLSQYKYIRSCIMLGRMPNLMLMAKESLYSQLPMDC

T2 sequence (P01111 whole entry): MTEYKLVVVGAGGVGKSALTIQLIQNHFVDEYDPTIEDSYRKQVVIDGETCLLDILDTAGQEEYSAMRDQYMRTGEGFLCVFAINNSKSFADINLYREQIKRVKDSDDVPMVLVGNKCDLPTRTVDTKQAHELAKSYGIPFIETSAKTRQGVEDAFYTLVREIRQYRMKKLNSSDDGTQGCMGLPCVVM

| Binder | Kd [1] | Kd [2] | Kd [3] | Kd [4] | Kd [5] |
| --- | --- | --- | --- | --- | --- |
| B1 | 0.238 µM | 0.442 µM | 11.5 µM | 10 µM | – |
| B2 | – | – | 114 µM | 145 µM | – |
| B3 | – | – | – | – | 11 µM |
| B4 | – | – | – | – | 18.1 µM |
